Consider three molecules from patent US20060084113A1 (published 2006).

The target in assay [1] is anhydro-trypsin (agarose-immobilized, Pierce) (UniProt P00760). Kind of assay: phage on beads, elution, pfu.
The target in assay [2] is trypsin (immobilized active trypsin, Pierce; or free trypsin) (UniProt P00760). The assay can be described thus: phage on beads, elution, pfu.
Assay [3] addresses human neutrophil elastase (HNE), immobilized on agarose beads (human) (UniProt P08246). Kind of assay: phage on beads, acid elution, pfu.
For assay [4], the target named is trypsin (immobilized active trypsin, Pierce; or free trypsin) (UniProt P00760). Kind of assay: phage on beads, acid elution, pfu.
The target in a further assay is Protein A-agarose beads (UniProt P38507). The assay can be described thus: phage titer after protein A-agarose.
For assay [5], the target named is normal rabbit serum / IgG purified from normal rabbit serum. The assay can be described thus: phage titer after normal rabbit IgG.
Assay [6] addresses anhydro-trypsin (agarose-immobilized, Pierce) (UniProt P00760). The assay can be described thus: phage on beads, acid elution, pfu; experiment 1.
For assay [7] the target is unchanged. The assay can be described thus: phage on beads, acid elution, pfu; experiment 2.
For assay [8], the target named is normal rabbit serum / IgG purified from normal rabbit serum. The assay can be described thus: phage titer after normal rabbit IgG and protein A-agarose.
Assay [9] deals with trypsin (immobilized active trypsin, Pierce; or free trypsin) (UniProt P00760). Kind of assay: phage on trypsin beads, pH 2.2 elution.
The target in assay [10] is anhydro-trypsin (agarose-immobilized, Pierce) (UniProt P00760). Kind of assay: phage titer after incubation with agarose beads.
Assay [11] has as its target streptavidin (agarose-immobilized, Sigma) (UniProt P22629). Kind of assay: phage titer after incubation with agarose beads.
For assay [12], the target named is anhydro-trypsin (agarose-immobilized, Pierce) (UniProt P00760). Kind of assay: phage on agarose beads, pH 2.2 elution, dot blot.
For assay [13], the target named is streptavidin (agarose-immobilized, Sigma) (UniProt P22629). Kind of assay: phage on agarose beads, pH 2.2 elution, dot blot.
Sequence of streptavidin (agarose-immobilized, Sigma) (P22629 37-163 limits assumed): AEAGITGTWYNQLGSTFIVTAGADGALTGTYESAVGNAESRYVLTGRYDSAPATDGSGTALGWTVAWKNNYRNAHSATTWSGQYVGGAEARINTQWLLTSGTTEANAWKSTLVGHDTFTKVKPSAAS
Assay [14] addresses T1, human neutrophil elastase (HNE), immobilized on agarose beads (human, UniProt P08246 30-247, limits assumed).
T1 construct: also called HNE beads; leukocyte elastase
T1 sequence (looked up): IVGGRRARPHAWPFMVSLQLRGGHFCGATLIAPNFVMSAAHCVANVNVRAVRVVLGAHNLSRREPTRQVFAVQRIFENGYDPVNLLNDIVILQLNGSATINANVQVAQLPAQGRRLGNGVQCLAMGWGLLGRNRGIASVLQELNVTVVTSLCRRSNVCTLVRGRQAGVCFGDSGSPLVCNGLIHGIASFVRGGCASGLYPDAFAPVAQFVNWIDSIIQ
Kind of assay: phage on HNE beads, stepwise pH elution.

For assay [15], the target named is T1, human neutrophil elastase (HNE), …. The assay can be described thus: phage on HNE beads, abbreviated pH elution.

Sequence of trypsin (immobilized active trypsin, Pierce; or free trypsin) (P00760 24-246): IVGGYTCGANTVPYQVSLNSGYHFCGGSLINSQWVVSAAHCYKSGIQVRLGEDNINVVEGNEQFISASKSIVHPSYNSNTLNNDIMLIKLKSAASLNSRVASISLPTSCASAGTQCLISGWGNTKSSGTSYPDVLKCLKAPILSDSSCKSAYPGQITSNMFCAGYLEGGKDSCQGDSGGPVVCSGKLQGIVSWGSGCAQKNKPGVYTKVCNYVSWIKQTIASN

As to “M13mp18 phage (wild type control, non-display phage)”, the eluted phage, % of input in assay [1] was 0.1 % of input; in assay [2], 0.00023 % of input; in assay [3] it was 0.0003 % of input; in assay [4], 0.0005 % of input; in [6], 0.2 % of input; in assay [7], 0.3 % of input. Further, the relative binding (to M13MP18) in assay [1], in assay [2], in assay [3] and in assay [4] was 1 fold in each case. In the assay with Protein A-agarose beads, the % of input pfu left, +Protein A is 72 % of input. For the same molecule, the % of input pfu left, +NRS in [5] is 104 % of input. The binding relative to M13MP18 in assay [6] is 1 fold. The binding relative to M13mp18 in [7] stood at 1 fold. For the same molecule, the % of input pfu left, +NRS +Protein A in assay [8] is 88 % of input.

In [9], MK phage (control, no displayed domain) had a percent of input phage recovered, CBS pH 6.5 of 0.00028%; a percent of input phage recovered, TBS pH 7.5 of 0.00034%; a total pfu recovered in elution buffer, CBS pH 6.5 of 1.35e+06 pfu; a total pfu recovered in elution buffer, TBS pH 7.5 of 1.48e+06 pfu. In addition, in [10], the percent residual titer, 1 h, 2 µl IAT stood at 97%; the percent residual titer, 1 h, 5 µl IAT was 110%; the percent residual titer, 1 h, 10 µl IAT was 99%; the percent residual titer, 2 h, 2 µl IAT was 103%. In assay [10], this molecule yielded a percent residual titer, 2 h, 5 µl IAT of 111%; a percent residual titer, 2 h, 10 µl IAT of 93%; a percent residual titer, 4 h, 2 µl IAT of 95%; a percent residual titer, 4 h, 5 µl IAT of 96%. For the same molecule, in assay [10], the percent residual titer, 4 h, 10 µl IAT is 106%. For the same molecule, in assay [11], the percent residual titer, 1 h, 5 µl IS is 106%; the percent residual titer, 2 h, 5 µl IS came out at 96%; the percent residual titer, 4 h, 5 µl IS worked out at 98%. In addition, in assay [12], the percent of total phage recovered in elution buffer, 2 µl IAT is < 1%; the percent of total phage recovered in elution buffer, 5 µl IAT is < 1%; the percent of total phage recovered in elution buffer, 10 µl IAT is < 1%. In addition, the percent of total phage recovered in elution buffer, 5 µl IS in [13] is < 1%.

B1: MA-ITI-E7 phage (ITI-DI-III fusion with the EpiNE-7 changes around the P1 position) (designed binder)
chain: KEDSCQLGYSAGPCVAMFPRYFYNGTSMACETFQYGGCMGNGNNFVTEKECLQTCRGAAETVESCLAKPHTENSFTNVWKDDKTLDRYANYEGCLWNATGVVVCTGDETQCYGTWVPIGLAIPENEGGGSEGGGSEGGGSEGGGTKPPEYGDTPIPGYTYINPLDGTYPPGTEQNPANPNPSLEESQPLNTFMFQNNRFRNRQGALTVYTGTVTQGTDPVKTYYQYTPVSSKAMYDAYWNGKFRDCAFHSGFNEDPFVCEYQGQSSDLPQPPVNAGGGSGGGSGGGSEGGGSEGGGSEGGGSEGGGSGGGSGSGDFDYEKMANANKGAMTENADENALQSDAKGKLDSVATDYGAAIDGFIGDVSGLANGNGATGDFAGSNSQMAQVGDGDNSPLMNNFRQYLPSLPQSVECRPFVFSAGKPYEFSIDCDKINLFRGVFAFLLYVATFMYVFSTFANILRNKES
As to B1, the “fold lower total fraction eluted than EpiNE-7 phage” value in assay [14] was ~40 fold. In assay [15], the “fold lower total fraction eluted than EpiNE-7 phage” value turned out to be 40 fold and the “fold total fraction eluted against MA-ITI phage” value stood at 10 fold.
